Measurements taken from patent US20250352667A1.

Legend:
[1] = biological target: KEAP1 (wild-type full-length), His-tagged (human) (UniProt Q14145); assay: AlphaScreen; 19.2 nM FLAG-NRF2, 150 nM His-KEAP1; Repeat 1 (same value as in Table 23)
[2] = biological target: KEAP1 (wild-type full-length), His-tagged (human) (UniProt Q14145); assay: AlphaScreen; 9.6 nM FLAG-NRF2, 150 nM His-KEAP1; against wild-type NRF2 isoform 2 = 100%
[3] = biological target: KEAP1 (wild-type full-length), His-tagged (human) (UniProt Q14145); assay: AlphaScreen; 38.4 nM FLAG-NRF2, 150 nM His-KEAP1 (same value as in Table 23)
[4] = biological target: KEAP1 (wild-type full-length), His-tagged (human) (UniProt Q14145); assay: AlphaScreen; 9.6 nM FLAG-NRF2, 150 nM His-KEAP1; Repeat 1 (same value as in Table 23)
[5] = biological target: KEAP1 (wild-type full-length), His-tagged (human) (UniProt Q14145); assay: AlphaScreen; 19.2 nM FLAG-NRF2, 150 nM His-KEAP1; Repeat 2 (same value as in Table 23)
[6] = biological target: KEAP1 (wild-type full-length), His-tagged (human) (UniProt Q14145); assay: AlphaScreen; 9.6 nM FLAG-NRF2, 150 nM His-KEAP1; Repeat 1 (same value as in Table 22)
[7] = biological target: KEAP1 (wild-type full-length), His-tagged (human) (UniProt Q14145); assay: AlphaScreen; 38.4 nM FLAG-NRF2, 150 nM His-KEAP1; Repeat 1 (same value as in Table 22)
[8] = biological target: KEAP1 (wild-type full-length), His-tagged (human) (UniProt Q14145); assay: AlphaScreen, all variants on one plate; optimal condition (19.2 nM NRF2), KEAP1 150 nM; the reference itself
[9] = biological target: KEAP1 (wild-type full-length), His-tagged (human) (UniProt Q14145); assay: AlphaScreen; mean over 9.6, 19.2 and 38.4 nM NRF2; 150 nM His-KEAP1
[10] = biological target: KEAP1 (wild-type full-length), His-tagged (human) (UniProt Q14145); assay: AlphaScreen; 9.6 nM FLAG-NRF2, 150 nM His-KEAP1; Repeat 2 (same value as in Table 22)
[11] = biological target: KEAP1 (wild-type full-length), His-tagged (human) (UniProt Q14145); assay: AlphaScreen; 9.6 nM FLAG-NRF2, 150 nM His-KEAP1; wild type set to 100%
[12] = biological target: KEAP1 (wild-type full-length), His-tagged (human) (UniProt Q14145); assay: AlphaScreen, all variants on one plate; lower condition (9.6 nM NRF2), KEAP1 150 nM; the reference itself

Sequence of KEAP1 (wild-type full-length), His-tagged (human) (Q14145 2-624 limits assumed, form in doubt): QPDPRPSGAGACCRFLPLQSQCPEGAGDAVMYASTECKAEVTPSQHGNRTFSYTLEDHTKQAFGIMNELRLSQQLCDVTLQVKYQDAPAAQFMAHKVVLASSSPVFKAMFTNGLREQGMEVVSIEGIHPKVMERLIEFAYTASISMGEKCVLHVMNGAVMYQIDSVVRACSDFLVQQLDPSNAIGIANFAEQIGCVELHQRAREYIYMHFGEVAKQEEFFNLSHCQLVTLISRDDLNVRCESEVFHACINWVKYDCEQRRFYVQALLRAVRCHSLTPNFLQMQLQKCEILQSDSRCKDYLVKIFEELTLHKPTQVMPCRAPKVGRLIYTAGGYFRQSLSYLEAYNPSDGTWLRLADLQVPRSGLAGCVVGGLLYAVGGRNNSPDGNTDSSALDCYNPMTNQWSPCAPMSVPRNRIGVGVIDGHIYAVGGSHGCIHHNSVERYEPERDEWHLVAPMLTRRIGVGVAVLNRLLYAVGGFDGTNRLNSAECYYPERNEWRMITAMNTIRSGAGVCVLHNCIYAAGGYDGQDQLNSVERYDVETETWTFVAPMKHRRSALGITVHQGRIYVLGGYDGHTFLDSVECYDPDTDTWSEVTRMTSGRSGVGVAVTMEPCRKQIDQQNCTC

Row | A-counts [1] [A-counts] | Binding Percentage (%) [2] [%] | S/N [3] | A-counts [4] [A-counts] | A-counts [5] [A-counts] | A-counts [6] [A-counts] | A-counts [7] [A-counts] | % Disruption in Binding [8] [%] | Average Binding [9] [%] | A-counts [10] [A-counts] | Binding Percentage (%) [11] [%] | % Disruption in Binding [12] [%] | Substance
1 | 1700 | 35.7 | 1.8 | 1670 | 1950 |  |  |  |  |  |  |  | NRF2 isoform 2 (E63G/E66G full-length), FLAG-tagged
2 |  |  |  |  |  | 2310 | 3470 | 0 | 100 | 2590 | 100 | 0 | NRF2 isoform 2 (wild-type full-length), FLAG-tagged
